Laboratory results taken from PMC9865888.

Target: S. aureus DNA gyrase fusion truncate GyrB27:A56 (GKdel) (Staphylococcus aureus) (UniProt P66937)
Assay: crystal structure; 2.8 Å, space group P6_(1); microbatch under oil, 20 °C; complex with 20-447T DNA duplex, zoliflodacin and MnCl2; 90 mM Bis-Tris pH 6.3, 9% PEG 5 kMME

“S. aureus DNA gyrase fusion truncate GyrB27:A56 (GKdel) (from UniProt P66937 409-644; Q99XG5 2-491) (enzyme)” showed a stoichiometry N of 2.
